Laboratory results taken from the DeepSol protein solubility set.

Experiment: soluble on expression in E. coli; label from the status in PepcDB or PDB records
In the case of “SLAEPPAQDPAELAAAAESYLRQQLAALPGEPSITLDPLRTDRLDACEALTPFMPSGMRVRARMTVGLRCVAPRTWTVYAQATVSVPGQYYVAARQIAPGKTIEAADLTTRDGDLVALPPGVITDAAAILGMRPAHRIAAGQPIKGAGLRSAESVSRGQSVRITARGNGFVVSSEGQALDNAPPGATVQVRTASGQVVSGIVQAAGLVEIQL”, the “soluble on expression in E. coli” value was “not soluble”. In the case of “SLANIREIAKRAGISIATVSRHLNNTGYVSEDAREKIQKVVDELNYTPNALARAMFTKNSKTIGLMVPNISNPFFNQMASVIEEYAKNKGYTLFLCNTDDDKEKEKTYLEVLQSHRVAGIIASRSQCEDEYANIDIPVVAFENHILDNIITISSDNYNGGRMAFDHLYEKGCRKILHIKGPEVFEATELRYKGFLDGARAKDLEIDFIEFQHDFQVKMLEEDINSMKDIVNYDGIFVFNDIAAATVMRALKKRGVSIPQEVQIIGFDNSFIGELLYPSLTTINQPIEALAYTIIELLIKIINGEGVLIEDYIMEVKLIERETTISLKDEG”, the “soluble on expression in E. coli” value was “soluble”. With “SLAPTTEIEPIEAQSLKKLSLKSLKRSLELFSPVHGQFPPPDPEAKQIRLSHKMKVAFGGVEPVVSQPPRQPDRINEQPGPSNALSLAAPEGSKSTQKGATESAIVVGPTLLRPILPKGLNYTGSSGKSTTIIPANVSSYQRNLSTAALMERIPSRWPRPEWHAPWKNYRVIQGHLGWVRSVAFDPSNEWFCTGSADRTIKIWDVATGVLKLTLTGHIEQVRGLAVSNRHTYMFSAGDDKQVKCWDLEQNKVIRSYHGHLSGVYCLALHPTLDVLLTGGRDSVCRVWDIRTKMQIFALSGHDNTVCSVFTRPTDPQVVTGSHDTTIKFWDLRYGKTMSTLTHHKKSVRAMTLHPKENAFASASADNTKKFSLPKGEFCHNMLSQQKTIINAMAVNEDGVMVTGGDNGSIWFWDWKSGHSFQQSETIVQPGSLESEAGIYAACYDNTGSRLVTCEADKTIKMWKEDENATPETHPINFKPPKEIRRF” the “soluble on expression in E. coli” value was “soluble”. For “SLAQIPRPEIMDEDQLMKEVLDKFVNCHEQTYEEFLSTFTHLSKEDNVAKWGAHGTDSSENIFSTVKWNHKTESNGCHFRNTTIFLHTSSEHSEEDQIVIDEGHKVGSSFQGDMTRAGKVKVDNFLDLEDVDMEEESKPQMNKDCLLLPGEVEQDISTSVPSYDPSVDLPLTSEVRPKPAVGRTQKQTEEILGDEVQPFFLDEEFDYDNVTLTPKFTAGEIATIQELSKQKRVGSGTNVCELHD”, the “soluble on expression in E. coli” value was “soluble”. For “SLDWQKGMNSAIDYIEKNLTGNVNVRTAAGFVGCSTWEFQRIFSFLTHIPLSEYIRQRKLTLAAQEIKDNDVKIIDIALKYGYESPAAFSRAFNKLFGIAPSSVRNTENNLKTYPRITFEKIENERLIKMSRFSERGYVVRENGPVYFTKDMDKTVKWFEEILGWSGDIVARDDEGFGDYGCVFDYPSEVAVAHLTPFRGFHLFKGEPIKGVAGFMMIEGIDALHKYVKENGWDQISDIYTQPWGARECSITTTDGCILRFFESIQEG”, the “soluble on expression in E. coli” value was “soluble”. With “SLENKIVKIEPQSIAEEMGIEVGDSLISINGKEVKDIIDYRFLMADEYVVVKIQKTNKEIWELEIEKEYDEKLGVEFESGILDSAKSCRNKCIFCFIDQLPKGMRKTLYFKDDDSRLSFLQGNFVTLTNMSDDDIDRIIKYRISPINISVQTTNPELRKKMLNNKFAGNLMERMKKLSNAGITMNCQVVLCPGINSGEEFSKTVNDLYKLYPSVKNIAGVPVGITSYREGLFNMVPYDSQSALKEIENIKPIQEKFIKEIGSPFVRLSDEFYVLSGIPIPKAEFYGEFEQFEDGIGMIRTFRDNINMSLDNLKDGIHKSFTMVTGVLAYEEIENAAKMLMEKSRGLKINVIKVINEFFGEKITVAGLLTGRDILNYLKRNEVGDYIILPSNMLKSDEDVFLDDVKVLDIEKELNKKVLVCNYSGEDLVDIINKNGREE” the “soluble on expression in E. coli” value was “soluble”. With “SLERPPALAMPMPTEGTPPPLSGTPIPVPAYFRHAEPGFSLKRPRGLSRSLPPPPPAKGSIPISRLFPPRTPGWHQLQPRRVSFRGEASETLQSPGYDPSRPESFFQQSFQRLSRLGHGSYGEVFKVRSKEDGRLYAVKRSMSPFRGPKDRARKLAEVGSHEKVGQHPCCVRLEQAWEEGGILYLQTELCGPSLQQHCEAWGASLPEAQVWGYLRDTLLALAHLHSQGLVHLDVKPANIFLGPRGRCKLGDFGLLVELGTAGAGEVQEGDPRYMAPELLQGSYGTAADVFSLGLTILEVACNMELPHGGEGWQQLRQGYLPPEFTAGLSSELRSVLVMMLEPDPKLRATAEALLALPVLRQPRAWGVLWCMAAEALSRGWALWQALLALLCWLWHGLAHPASWLQPLGPPATPPGSPPCSLLLDSSLSSNWDDDSLGPSLSPEAVLARTVGSTSTPRSRCTPRDALDLSDINSEPPRGSFPSFEPRNLLSLFEDTLDPT” the “soluble on expression in E. coli” value was “soluble”. With “SLETYGDSLATAVAERWNNHQAFIFGLATGAVVRLIAPLLQSKQSDPAVLVVDAMGQSVISLLSGHQGGGDRLAQIVAEQLQAKAILTGGANGLGQIAVDCLGIPFGWRKGKGDWTAVSSALAAQKLVGVTQTAGLTLWQNHLPPGHGFTFSGTKETTATLLITVQESNLEKLNKPMAPWHPRLLWIGVGCVRGTDLALLERALLEVLERENLSPLAIAGLASVHLKADEVGMQQFAQKYDLPFFTFPPEQLAAQAVPNPSEVVLQEVGTPSVAEAAALTAAQMYSQGGKLIAEKVIVKQHNQAVTVAIAKGE” the “soluble on expression in E. coli” value was “not soluble”. For “SLFNPNELKMDFLKRPVTHSFLKLEIMPYKSAFNLRMRENIQSYYKQALRGWGSFEDELLGLKNTLKNLPLYQTLKIKPKKINAPICVVGNGPSLDLLLDFLKENEKNCIIFSCGTALKPLKTHGVKVDFQIEVERIDYLKEVLENAPLEDTPLMGANMLNPNAFNVAKEALMFMRGGSACAYISPLSIEYAAPLVGNAGVALAGLMSDEIYLCALDCAYIKGFKKHAQNSYYGDEKEIDTSSLISVEGNFKGYETFSDSLFLLSKERIEEALNHYQPKKVYNLSYGAKIKHAVSLNYSQVKL”, the “soluble on expression in E. coli” value was “not soluble”. In the case of “SLGEMKRAAIIIDDFGGDVKGVDDFLTGEIPVTVAVMPFLEHSTKQAEIAQAAGLEVIVHMPLEPKKGKISWLGPSGITSNLSVGEVKSRVRKAFDDIPYAVGLNNHMGSKIVENEKIMRAILEVVKEKNAFIIDSGTSPHSLIPQLAEELEVPYATRSIFLDNTHSSRKEVIKNMRKLAKKAKQGSEPIGIGHVGVRGDETYAGIRSMLDEFQAESIQLVPVSQLLPSPIEEDHNKFWQQPFQAKE”, the “soluble on expression in E. coli” value was “soluble”. With “SLGHWQLASKPTVLKGLPASTGVAIGEFWFDNTQPSLSDVFPSSTLDKEREQELLLVAIERALNDFRRMRKKFDSEINKDALAIFDLFTHLLNDPMLRGDLKKQIEKGDRADWALRQVVETYSNRFARMSDVYLRERAQDIRELGQRLLYFLHNSEQENAAIDRPIILVANELTATLLASVPKEHLLAVVSLEGGANSHAAILSRALGVPAVMGANINTDVVNGKLGIVDGYTGEIFLEPNRQLLREYRSLVSEESELFAMVNKDLA” the “soluble on expression in E. coli” value was “not soluble”. With “SLGWFKTCSKQEDNDVCVVQNVVLAQNGQMITAVGLITVEGKVNRKLLQVSVPTARLIPPGVMMQIDGGKGQKLDYAVCLPDKCTAEVPLTDAMIASLKKGSEVVFTSINFRRAPNPIKIALSGFTGAYDGAAITQSQLAE” the “soluble on expression in E. coli” value was “not soluble”. With “SLHAAKDEVRSRLMPINRAYNVEKLIEAIQYYQEKTNRRVTFEYGLFGGVNDQLEHARELAHLIKGLNCHVNLIPVNHVPERNYVKTAKNDIFKFEKELKRLGINATIRREQGSDIDAACGQLRAKERQVETR” the “soluble on expression in E. coli” value was “soluble”. With “SLIENSHVKKDDIWPSGGQMTVKDLTAKYTEGGNAILENISFSISPGQRVGLLGRTGSGKSTLLSAFLRLLNTEGEIQIDGVSWDSITLQQWRKAFGVIPQKVFIFSGTFRKNLDPYEQWSDQEIWKVADEVGLRSVIEQFPGKLDFVLVDGGCVLSHGHKQLMCLARSVLSKAKILLLDQPSAHLDPVTYQIIRRTLKQAFADCTVILCEHRIEAMLECQQFLVIEENKVRQYDSIQKLLNERSLFRQAISPSDRVKLFPHRNSSKCKSKPQIAALKEETEEEVQDTRLENLYFQGDKDCEMKRTTLDSPLGKLELSGCEQGLHEIKLLGKGTSAADAVEVPAPAAVLGGPEPLMQATAWLNAYFHQPEAIEEFPVPALHHPVFQQESFTRQVLWKLLKVVKFGEVISYQQLAALAGNPAATAAVKTALSGNPVPILIPCHRVVSSSGAVGGYEGGLAVKEWLLAHEGHRLGKPGLG” the “soluble on expression in E. coli” value was “soluble”. With “SLIPIFIAKRENGEKIHLLDHHDEELLHHMRKRESFFCIACGKEVLMRLGKQKRWHFAHKKVDSCLAFYEAESTYHMYGKELLYRWFKRQNVHVEIEHYLPEIRQRPDIFIERAGKQIAIEYQCANLSIEQLCKRTYSYWRAGIQVIWIIGGNQLKKHSAYWMKFSSLMAFSLQSYPQPLLIFFCSKQKSFMKCTFITSFSTSVAFSHIIYLPIETTTFEMLFSPVPFQREVLNREWKRRKDYFRQNALPILNYNHKSLLRLLYQCKCNPANFPSEIGVPLPSSFAFQTNSFIWQAFLYMNCIGELAVGDCISLKYVCSYIKKYTKRRMLPYFSQH” the “soluble on expression in E. coli” value was “not soluble”. In the case of “SLKSGCSARQVCAGNTHFAVVTVEKELYTWVNMQGGTKLHGQLGHGDKASYRQPKHVEKLQGKAIHQVSCGDDFTVCVTDEGQLYAFGSDYYGCMGVDKVAGPEVLEPMQLNFFLSNPVEQVSCGDNHVVVLTRNKEVYSWGCGEYGRLGLDSEEDYYTPQKVDVPKALIIVAVQCGCDGTFLLTQSGKVLACGLNEFNKLGLNQCMSGIINHEAYHEVPYTTSFTLAKQLSFYKIRTIAPGKTHTAAIDERGRLLTFGCNKCGQLGVGNYKKRLGINLLGGPLGGKQVIRVSCGDEFTIAATDDNHIFAWGNGGNGRLAMTPTERPHGSDICTSWPRPIFGSLHHVPDLSCRGWHTILIVEKVLNSKTIRSNSSGLSIGTVFQSSS”, the “soluble on expression in E. coli” value was “soluble”. With “SLLSPAAERSQGSLLSVIMEILKDQSHRELFGLELGSGTGQHVVHFAQEMPFVTWLPSDTKEESRNSIRAYIEATKAKTVLEPVHLDASEPWDKWAGLPQNSCDIILAINLLQYTPFSTAEGVFKGSGQILKQNGLLMTYGPYAINGTITPICNEQLDETLRQMNPEWGLPDIDVLRQLAFSNGMRMERMIEMPESNKCLVFRKL” the “soluble on expression in E. coli” value was “soluble”. For “SLLVENLKQLQERVAVSDGRAKADLVIKNGRIINVFSGEIMDGDIAIKNGYIAGIGNFPDAEKIIDAAGAFIAPGFIDAHVHVESAMVTPAEFARVLLPNGVTTIVTDPHEIANVAGEKGIEFMLEDAKGVPIDMFVMLPSSVPATEGEHNGETLHAEKLHPLYRHEKVIGLAEVMDFPSVAKGSSDILTKIIDAKKEGGRIDGHGAGLTSADLNNYLAVGIRTDHESTTAKEATDRLRAGMFVMLREGTVGRDLLQTIPAVSEKNSHRFCFCTDDKLINDLITEGSINFNIRLAIKNGIDPITAIQMATINAANCHNLPYLGAVAAGYQADIVFLTDIETVEISKVLKNGEVVVDNGVRHEAAFKQQAAVPFVSPPINHHVSLQDLALPLTKETCYVIGMQPNSLFTEKRIEQVAIQDGKFVPTVENDLLKMAVVERHHDTGCVGLGIVKGFGLTEGAIATTVAHDSHNIVAVGISDEAMKAAIDHITQTGGGIAVVNGAGQVLHDLALPIAGLLSDKSYEEVENDLAGLLNAFKQISTADGFDPFLTLSFLTLPVIPELKLTDQGLFDFATFQIISNEVN”, the “soluble on expression in E. coli” value was “soluble”. For “SLNRLFKRYSQQVQLILEATRAIGDGNLKERIDTNQVQEELNDIASAINFMVDSLDQYIHDIYTLEIKQRDAHMRALQSQINPHFLYNTLEYIRMYALSRQQEELADVVYAFSTLLRNNINQEKTTTLAEEISFCEKYVYLYQMRYPDQFAYKFEIEETIADVEIPKFIIQPLVENYFVHGIDYQRQDNAIKVHAYREGEKIIVAVVDNGKGITANRLEEIRERLNQTEIDTEQSIGLRNVHERLQRFFGESYGLTIEGKEGEGTTIRLSFVA”, the “soluble on expression in E. coli” value was “soluble”. With “SLQNNQPVEFNHAINYVNKIKNRFQGQPDIYKAFLEILHTYQKEQRNAKEAGGNYTPALTEQEVYAQVARLFKNQEDLLSEFGQFLPDA” the “soluble on expression in E. coli” value was “soluble”.
